Data: US11673947B2, “Target tissue-specific antigen-binding molecule” (Chugai Seiyaku Kabushiki Kaisha, priority 2012, dated 2023)

Legend:
[1] = system: BaF/hIL-6R cells; test: Flow cytometry, binding to membrane-type hIL-6R on BaF/hIL-6R cells; type: cell-based
Method: 6RNMSC1-2_F02 antibody which has an antigen-binding activity in the presence of kynurenine as described in Example 14 was assessed for its binding to soluble hIL-6R. As a first step in assessing the ADCC activity of 6RNMSC1-2_F02 to hIL-6R-expressing cells, 6RNMSC1-2_F02 was evaluated as to whether it has the ability to bind to membrane-type hIL-6R expressed in hIL-6R-expressing cells. Specifically, the binding of 6RNMSC1-2_F02 to cells of the BaF/hIL-6R line (WO2012/073992) was assayed and analyzed using a flow cytometer. An appropriate number of BaF/hIL-6R cells were prepared and blocked with PBS containing 2% FBS on ice for one hour or more. Supernatant was removed from the blocked cells by centrifugation, and 100 μl of 6RNMSC1-2_F02 or the control antibody MRA (the heavy chain and light chain sequences are shown in SEQ ID NOs: 92 and 93, respectively) was added under two conditions: in the presence or absence of a final concentration of kynurenine at 100 μM. In this step, the antibodies were contacted with cell-membrane hIL-6R on ice for 30 minutes. […] Then, in the presence or absence of kynurenine, the complex was contacted with a secondary antibody (Beckman Coulter IM1627) that recognizes the antibody constant region. […] The binding of 6RNMSC1-2_F02 to the prepared cells was assayed and analyzed using the BD FACS cant II Flow Cytometer (BD).

[2] = target: T1, hIL-6R (Homo sapiens, UniProt P08887); test: Phage ELISA, binding to hIL-6R in the presence or absence of SC; details: in the presence of SC
T1 sequence (P08887 20-355 limits assumed): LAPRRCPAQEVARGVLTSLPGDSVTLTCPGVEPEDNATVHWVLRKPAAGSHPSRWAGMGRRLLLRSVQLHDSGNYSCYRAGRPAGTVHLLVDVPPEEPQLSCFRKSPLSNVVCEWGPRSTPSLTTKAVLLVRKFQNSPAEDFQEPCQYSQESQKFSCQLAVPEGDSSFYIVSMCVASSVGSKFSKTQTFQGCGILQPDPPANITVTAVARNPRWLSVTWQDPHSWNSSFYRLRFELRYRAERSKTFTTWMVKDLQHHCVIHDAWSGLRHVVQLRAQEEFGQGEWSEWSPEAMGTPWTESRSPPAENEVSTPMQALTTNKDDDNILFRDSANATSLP
Method: Culture supernatants containing phages were collected according to a conventional method (Methods Mol. Biol. (2002) 178, 133-145) from single colonies of E. coli obtained as described in (14-2). Phages purified by the method described in (2-4) were subjected to ELISA by the following procedure. A StreptaWell 96 microtiter plate (Roche) was coated overnight with 100 μl of TBS containing biotin-labeled hIL-6R. After biotin-labeled hIL-6R was removed by washing each well of the plate with TBST, the wells were blocked with 250 μl of 2% skim milk/TBS for one hour or more. 2% skim milk/TBS was removed, and then the prepared, purified phages were added to each well. The plate was allowed to stand at room temperature for one hour to allow binding of antibody-displaying phages to biotin-labeled hIL-6R in each well in the presence or absence of SC. After washing with TBST or SC/TBST, an HRP-conjugated anti-M13 antibody (Amersham Pharmacia Biotech) diluted with TBS or SC/TBS was added to each well. The plate was incubated for one hour. Following wash with TBST or SC/TBST, the TMB single solution (ZYMED) was added to each well. The chromogenic reaction in the solution of each well was terminated by adding sulfuric acid. Then, the developed color was assessed by measuring absorbance at 450 nm.

[3] = target: T1, hIL-6R; test: IgG ELISA, binding to hIL-6R in mouse serum with or without kynurenine; details: Table 20: condition 1 (mouse serum without kynurenine) vs condition 2 (mouse serum in the presence of kynurenine)
Method: As described in Example 14, antibody 6RNMSC1-2_F02 which has antigen-binding activity in the presence of kynurenine, and the known anti-hIL-6R antibody MRA were subjected to ELISA under the two conditions described in Table 20. The antigen used was biotin-labeled hIL-6R.
First, a StreptaWell 96 microtiter plate (Roche) was coated at room temperature for one hour or more with 100 μl of PBS containing the biotin-labeled antigen. After washing with Wash buffer to remove unbound antigen from the plate, each well was blocked for one hour or more with 250 μl of Blocking Buffer. After Blocking Buffer was removed from each well, each of the purified IgGs was prepared to 2.5 μg/ml under condition 2 shown in Table 20, and aliquoted at 100 μl into the plate. The plate was allowed to stand at room temperature for one hour to allow binding of each IgG to the antigen in each well. After washing with Wash Buffer containing 100 μM kynurenine, an HRP-conjugated anti-human IgG antibody (BIOSOURCE) diluted with Sample Buffer containing kynurenine was added to each well. The plate was incubated for one hour. Following wash with Wash Buffer containing kynurenine, the TMB single solution (ZYMED) was added to each well. The chromogenic reaction in the solution of each well was terminated by adding sulfuric acid. Then, the developed color was assessed by measuring absorbance at 450 nm.

B1: 6RNMSC1-2_F02: antibody that binds to hIL-6R in the presence of kynurenine; SEQ ID NOs: 86 and 87 (antibody, listed as Homo sapiens, V domains shown)
VH: QVQLVQSGAEVKKPGSSVKVSCKASGGTFSSYAISWVRQAPGQGLEWMGGIIPIFGTANYAQKFQGRVTITADESTSTAYMELSSLRSEDTAVYYCARDAPVVARPRGAFDIWGQGTMVTVSS
VL: DIVMTQTPLSSPVTLGQPASISCRSSQSLVHSDGNTYLSWLQQRPGQPPRLLIHEISNRFSGVPDRFSGSGAGTNFTLKISRVEAEDVGVYYCMQATQFPRTFGQGTKVEIK
fluorescence (binding to membrane-type hIL-6R) ([1]; in the absence of kynurenine): not detectable | fluorescence (binding to membrane-type hIL-6R) ([1]; in the presence of 100 μM kynurenine): fluorescence shift was observed | binding activity to hIL-6R in the presence of a small molecule cocktail (phage ELISA) [2]: have binding activity | absorbance under condition 1 as compared to condition 2 [3]: markedly lower
